Target: Pol II stalk (RPB4-RPB7), S. scrofa (S. scrofa)
Experiment: cryo-EM structure; PEC-RNGTT: phosphorylated Pol II, DNA-RNA scaffold with 17 nt 5′-triphosphate RNA, DSIF, RNGTT, 100 μM GMPPNP, NELF added stepwise; purified and crosslinked by GraFix; NELF seen in an Up and a Down state
Details: both partners purified

- binding result: binds
B1: RNA guanylyltransferase and 5′-phosphatase (RNGTT) (enzyme)
chain: not shown
notes: human RNGTT, full-length gene; TPase domain, linker, GTase domain with OB fold; Released from the IgG resin by on-column digestion; also called capping enzyme; CE; source: Expi293F, transfected, purified (IgG resin, on-column digestion, Mono Q); not shown: 4 × ProteinA, N-terminal, cleaved

— article PMC11139899, “Structures of co-transcriptional RNA capping enzymes on paused transcription complex” (Nature Communications, 2024)
